This series addresses T7 RNA polymerase (Bacteriophage T7, UniProt P00573 P00573:1-883). Nature of the series: functional promoter recovered as cDNA by in vitro transcription and deep sequencing; relative strength not given. On the procedure:
Transcription with T7 RNA polymerase, phenol/chloroform/iso-amyl alcohol extraction, ethanol precipitation, and reverse transcription were performed as described for Examples 1 and 2, above. PCR was done of the resulting cDNA with primers that added appropriate indexed sequences for Illumina deep sequencing, as described above and herein. PCR was also done directly on the library plasmid, again adding the appropriate sequences for Illumina deep sequencing, but with a different index. The appropriately sized PCR products from the cDNA and from the plasmid library were gel purified. An equal mass amount of the two products were mixed and submitted for Illumina MiSeq deep sequencing. Approximately 5 million sequences were generated for each of the cDNA and plasmid library after separation based on the primer indices. For both cDNA and library PCR products, non-promoter sequences were trimmed, promoter sequences were separated based on the number of mutations present in each sequence, and the number of times any given sequence was present was determined. […] See, SEQ ID NOs: 10-73473 listed in the text-formatted computer readable sequence listing filed herewith, and incorporated herein by reference. […]

This is an account of results in US20180155712, “COMPOSITIONS AND METHODS FOR IDENTIFYING POLYNUCLEOTIDES OF INTEREST” (The Regents of the University of California, published 2018).

Chain of T7 RNA polymerase (P00573 whole entry, one chain of several): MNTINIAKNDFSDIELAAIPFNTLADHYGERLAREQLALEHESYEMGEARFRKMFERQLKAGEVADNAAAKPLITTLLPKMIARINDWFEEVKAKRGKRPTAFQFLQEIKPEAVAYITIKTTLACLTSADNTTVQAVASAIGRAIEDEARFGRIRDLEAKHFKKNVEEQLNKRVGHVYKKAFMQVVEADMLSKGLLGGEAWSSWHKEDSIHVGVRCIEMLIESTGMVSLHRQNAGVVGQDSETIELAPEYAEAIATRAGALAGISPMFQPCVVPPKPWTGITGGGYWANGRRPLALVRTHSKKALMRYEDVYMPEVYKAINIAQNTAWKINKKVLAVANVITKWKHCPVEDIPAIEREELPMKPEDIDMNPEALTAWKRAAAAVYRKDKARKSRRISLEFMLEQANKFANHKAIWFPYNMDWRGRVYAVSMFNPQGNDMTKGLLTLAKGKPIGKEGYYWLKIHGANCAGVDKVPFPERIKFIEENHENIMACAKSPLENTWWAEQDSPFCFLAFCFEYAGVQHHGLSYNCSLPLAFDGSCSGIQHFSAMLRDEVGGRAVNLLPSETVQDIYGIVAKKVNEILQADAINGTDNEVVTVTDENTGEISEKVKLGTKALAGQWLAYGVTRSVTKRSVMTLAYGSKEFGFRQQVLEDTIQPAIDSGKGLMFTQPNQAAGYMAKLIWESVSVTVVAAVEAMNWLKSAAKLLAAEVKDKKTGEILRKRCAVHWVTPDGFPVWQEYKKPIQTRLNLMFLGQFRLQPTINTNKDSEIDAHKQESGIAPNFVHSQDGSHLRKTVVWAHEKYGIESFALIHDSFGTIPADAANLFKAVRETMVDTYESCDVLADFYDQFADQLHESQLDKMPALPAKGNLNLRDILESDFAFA

B1: mutant T7 promoter SEQ ID NO: 10 (dsDNA)
DNA 1: TAATACGACTCGCTATCG
DNA 2: CGATAGCGAGTCGTATTA
As for B1, the binding result was “binds”.
